Results on one protein are retold here after PMC10014292.

Holding throughout (conditions): glycan lost; control: wild type
The nature of data set [1]: whole-cell patch clamp, HEK-293T.
Data set [2] is described as follows: NFAT promoter activity with TRPC6 antagonist.
The nature of data set [3]: Nppa, Rcan1 qPCR ± angiotensin II, rat cardiomyocytes.
Data set [4] in a line: cycloheximide chase, rate of YFP fluorescence decline.

B1: TRPC6: T221A (protein)
parent chain: MSQSPAFGPRRGSSPRGAAGAAARRNESQDYLLMDSELGEDGCPQAPLPCYGYYPCFRGSDNRLAHRRQTVLREKGRRLANRGPAYMFSDRSTSLSIEEERFLDAAEYGNIPVVRKMLEECHSLNVNCVDYMGQNALQLAVANEHLEITELLLKKENLSRVGDALLLAISKGYVRIVEAILSHPAFAEGKRLATSPSQSELQQDDFYAYDEDGTRFSHDVTPIILAAHCQEYEIVHTLLRKGARIERPHDYFCKCNDCNQKQKHDSFSHSRSRINAYKGLASPAYLSLSSEDPVMTALELSNELAVLANIEKEFKNDYKKLSMQCKDFVVGLLDLCRNTEEVEAILNGDVETLQSGDHGRPNLSRLKLAIKYEVKKFVAHPNCQQQLLSIWYENLSGLRQQTMAVKFLVVLAVAIGLPFLALIYWFAPCSKMGKIMRGPFMKFVAHAASFTIFLGLLVMNAADRFEGTKLLPNETSTDNAKQLFRMKTSCFSWMEMLIISWVIGMIWAECKEIWTQGPKEYLFELWNMLDFGMLAIFAASFIARFMAFWHASKAQSIIDANDTLKDLTKVTLGDNVKYYNLARIKWDPSDPQIISEGLYAIAVVLSFSRIAYILPANESFGPLQISLGRTVKDIFKFMVIFIMVFVAFMIGMFNLYSYYIGAKQNEAFTTVEESFKTLFWAIFGLSEVKSVVINYNHKFIENIGYVLYGVYNVTMVIVLLNMLIAMINSSFQEIEDDADVEWKFARAKLWFSYFEEGRTLPVPFNLVPSPKSLFYLLLKLKKWISELFQGHKKGFQEDAEMNKINEEKKLGILGSHEDLSKLSLDKKQVGHNKQPSIRSSEDFHLNSFNNPPRQYQKIMKRLIKRYVLQAQIDKESDEVNEGELKEIKQDISSLRYELLEEKSQNTEDLAELIRELGEKLSMEPNQEETNR
Regarding B1, in data set [1], the “other: channel current, other: percent increase in current” value is recorded as “increases”. The “other: antagonist sensitivity” value in data set [2] is recorded as “no change”. The “other: response to angiotensin II” value in data set [3] is on record as “no change”. For the same protein, in data set [4], the degradation_or_half_life result is listed as “decreases”.
